Broadly, the Kd is the free concentration of one partner at which half of the binding sites on the other are occupied at equilibrium, for simple one-to-one binding. The low end stands for higher affinity, the high end for lower affinity. One may read the koff as the rate constant with which the complex falls apart. A higher koff goes with fast dissociation. As a reminder, the kon is a measure of how fast the partners come together. Read a low kon as slow association.

In series [1] the target is T1, stabilized, soluble prefusion measles virus F ectodomain (F_ECTO E170G, E455G, residues 1-495) (Measles virus strain Ichinose-B95a, stabilised).
T1 chain 1: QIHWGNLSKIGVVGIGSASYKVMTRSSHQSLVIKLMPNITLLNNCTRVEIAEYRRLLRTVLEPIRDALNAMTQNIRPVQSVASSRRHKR
T1 chain 2: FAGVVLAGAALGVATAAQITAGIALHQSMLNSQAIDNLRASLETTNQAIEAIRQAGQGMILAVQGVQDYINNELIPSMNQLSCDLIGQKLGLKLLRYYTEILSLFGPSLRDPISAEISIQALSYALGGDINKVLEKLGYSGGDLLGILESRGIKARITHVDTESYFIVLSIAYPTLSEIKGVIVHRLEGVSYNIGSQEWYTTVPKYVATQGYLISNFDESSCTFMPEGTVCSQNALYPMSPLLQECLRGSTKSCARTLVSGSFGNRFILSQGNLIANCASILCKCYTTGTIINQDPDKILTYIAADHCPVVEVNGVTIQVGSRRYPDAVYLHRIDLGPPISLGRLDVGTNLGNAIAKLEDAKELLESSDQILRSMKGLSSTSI
The series can be described thus: cell-based or functional assay.

The target of series [2] is T1, stabilized, soluble prefusion measles …. Nature of the series: SPR. In general terms: In SPR one partner is held on a chip, and binding of the other changes the refractive index at the surface.
In series [3] the target is measles virus B3 F protein with L454W (destabilized prefusion conformation), on cells (Measles virus genotype B3).

B1: Y10F Fab (Fab, V domains shown)
VH: QVQLQQSGAELMKPGASVKISCKAAGYTFSNYWIEWVKQRPGHGLEWIGEILPGNSYTNYNEKFRGKATITADTSSNTAYMQLSSLTSEDSAVYYCASPLSGNYVRFAYWGQGTLVTVST
VL: QIVLSQSPAILSASPGEKVTMTCRATSSVVYMHWYQQKPGSSPKPWIYATSNLASGVPTRFSGSGSGTSYSLTISRVEAEDAATYYCQQWNSNPYTFGGGTKLEIK
Turning to B1, the “melting temperature of F_ECTO with Fab by nanoDSF (F_ECTO alone 47.2 °C)” value in series [1] came to 55.5 °C.

B2: chimeric monoclonal antibody Y10F (mouse Fab / human Fc) (antibody, V domains shown)
VH: QVQLQQSGAELMKPGASVKISCKAAGYTFSNYWIEWVKQRPGHGLEWIGEILPGNSYTNYNEKFRGKATITADTSSNTAYMQLSSLTSEDSAVYYCASPLSGNYVRFAYWGQGTLVTVST
VL: QIVLSQSPAILSASPGEKVTMTCRATSSVVYMHWYQQKPGSSPKPWIYATSNLASGVPTRFSGSGSGTSYSLTISRVEAEDAATYYCQQWNSNPYTFGGGTKLEIK
In series [2], B2 had a Kd of 99.9 nM, a koff of 0.00179 s⁻¹ and a kon of 17900 ± 300 M⁻¹ s⁻¹.

B3: chimeric monoclonal antibody H8 (mouse Fab / human Fc) (antibody, V domains shown)
VH: QVQLQQSGAELVRPGTSVKISCKASGYTFINYWLGWVKQRPGHGLEWIGDIYPGGGHTKYNEKFKGKATLTADTSSSTAYMQLSSLTSEDSAVFFCARSGVGSSYYYWGQGTTLTVSS
VL: DIVLTQSPASLAVSLGQRATISCRASKSVSSSGYSFLHWYQQKPGQPPKLLIYLASNLDSGVPARFSGSGSGTDFTLNIHPVEEEDATTYYCQHSWELPTFGGGTKLEIK
As for B3, in series [3], the IC90 of plaque reduction neutralization test (PRNT), virus B3 F-L454W was found to be 23 nM. In series [2], this molecule showed a Kd of 3.17 nM, a koff of 7.48e-05 s⁻¹ and a kon of 23600 ± 810 M⁻¹ s⁻¹.

B4: chimeric monoclonal antibody 77.1 (mouse Fab / human Fc) (antibody, V domains shown)
VH: DVQLQESGPGLVKPSQSLSLTCTVSGYSITSDYAWNWIRQFPGNKLEWMGYISYTLTTGYNPSLKSRISITRDSSKNQFFLQLNSVTTEDTATYYCARSGWLLPYWYFDVWGAGTTVTVSS
VL: DVQITQSPSYLAASPGETITINCRASKSISKYLAWYQEKPGKTNELLIYSGSTLQSGIPSRFRGSGSGTDFTLTISSLEPEDFAMYYCQQHNEYTLTFGGGTKLELK
With B4, in series [2], the Kd was found to be 1.71 nM, the koff was found to be 0.000207 s⁻¹ and the kon worked out at 121000 ± 2000 M⁻¹ s⁻¹.
